Laboratory results from patent CN113307874A (GUANGZHOU EXCELMAB BIOMEDICAL TECH CO LTD, dated 2021).
Numbering of substitutions follows the chain as printed.

T1: 人LAG3抗原 (ACRO, Cat.LA3-H5222) (human, UniProt P18627 23-450)
T1 construct: Bought protein; also called human LAG3 antigen
T1 sequence (looked up): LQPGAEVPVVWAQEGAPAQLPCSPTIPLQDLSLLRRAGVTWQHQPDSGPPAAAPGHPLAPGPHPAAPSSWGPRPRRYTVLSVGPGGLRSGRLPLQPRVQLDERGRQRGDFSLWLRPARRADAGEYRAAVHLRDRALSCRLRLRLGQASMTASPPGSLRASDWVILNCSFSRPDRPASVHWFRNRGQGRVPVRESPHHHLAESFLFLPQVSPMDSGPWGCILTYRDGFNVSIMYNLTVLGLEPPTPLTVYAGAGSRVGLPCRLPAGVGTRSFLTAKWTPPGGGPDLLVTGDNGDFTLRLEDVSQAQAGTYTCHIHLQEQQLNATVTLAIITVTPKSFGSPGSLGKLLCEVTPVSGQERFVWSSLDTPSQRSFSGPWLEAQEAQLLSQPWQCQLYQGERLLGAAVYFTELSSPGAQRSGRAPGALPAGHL

T2: 过表达人LAG3抗原的Jurkat/LAG3细胞表面的人LAG3 (human, UniProt P18627 23-525)
T2 construct: whole, on cells; also called 过表达人LAG3的Jurkat细胞
T2 sequence (looked up): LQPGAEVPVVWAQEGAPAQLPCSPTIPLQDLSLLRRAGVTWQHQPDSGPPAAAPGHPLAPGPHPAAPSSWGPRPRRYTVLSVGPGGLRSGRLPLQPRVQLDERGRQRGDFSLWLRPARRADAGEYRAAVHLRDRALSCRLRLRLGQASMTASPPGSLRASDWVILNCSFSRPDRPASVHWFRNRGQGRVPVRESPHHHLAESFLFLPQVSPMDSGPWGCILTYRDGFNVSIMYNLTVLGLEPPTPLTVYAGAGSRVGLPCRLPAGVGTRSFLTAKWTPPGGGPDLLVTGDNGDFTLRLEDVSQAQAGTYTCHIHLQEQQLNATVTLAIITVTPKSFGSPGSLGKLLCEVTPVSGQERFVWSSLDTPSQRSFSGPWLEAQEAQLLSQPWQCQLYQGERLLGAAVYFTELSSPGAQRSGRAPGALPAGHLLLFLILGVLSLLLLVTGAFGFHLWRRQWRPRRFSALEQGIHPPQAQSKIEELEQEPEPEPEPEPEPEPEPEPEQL

B1: 鼠源抗LAG3抗体 mL42 (antibody, V domains shown)
VH: EVQLQQSGAELVRPGASVKLSCKALGYTFTDYEVHWLKQTPVRGLEWIGAIHPGSGGAAYNQKVKGKATLTADKSSSTAYMELSVLTSEDSAVYYCTSYGWNDWGQGTTLTVSS
VL: DILMNQSHKFMSTSVGDRVSIACKASQDVSTAVAWYQQKPGQSPKLLISWASTRHTGVPDRFAGSGSGTDFTLTINNVQSEDLADYFCQQYSSYPYTFGGGTKLELER
notes: detected with anti-human IgG secondary antibodies
B2: 人源化抗体 hmL42 (antibody, V domains shown)
VH: QVQLVQSGAEVKKPGASVKVSCKASGYTFTDYEVHWVKQAPGQGLEWMGAIHPGSGGAAYNQKVKGKVTMTADTSISTAYMELSRLRSDDTAVYYCTSYGWNDWGQGTTVTVS
VL: DIQLTQSPSFLSASVGDRVTITCKASQDVSTAVAWYQQKPGKSPKLLISWASTRHTGVPDRFAGSGSGTDFTLTISSLQPEDFATYYCQQYSSYPYTFGQGTKLEIK
B3: hmL42人源化亲和力成熟变体 R2E8 (antibody, V domains shown)
VH: B2 VH
VL: B2 VL with Q89H, S92I, S93M, Y94F
B4: hmL42人源化亲和力成熟变体 R3H5 (antibody, V domains shown)
VH: B2 VH
VL: B2 VL with S92W, S93V, Y94F, P95S, Y96F
B5: hmL42人源化亲和力成熟变体 R3H9 (antibody, V domains shown)
VH: B2 VH
VL: B2 VL with S92V, S93D, Y94F
B6: hmL42人源化亲和力成熟变体 R2 (antibody, V domains shown)
VH: B2 VH
VL: B2 VL with Q89M, Q90G, S92L, S93F, Y94F
B7: hmL42人源化亲和力成熟变体 R2G10 (antibody, V domains shown)
VH: B2 VH
VL: B2 VL with S92W, S93E, Y94F, P95S, Y96F
B8: hmL42人源化亲和力成熟变体 R3G5 (antibody, V domains shown)
VH: B2 VH
VL: B2 VL with S92V, S93M, Y94F, Y96F
B9: hmL42人源化亲和力成熟变体 R3C4 (antibody, V domains shown)
VH: B2 VH
VL: B2 VL with S92V, S93A, Y94F, P95S, Y96F
B10: hmL42人源化亲和力成熟变体 R3D4 (antibody, V domains shown)
VH: B2 VH
VL: B2 VL with S92N, S93V, Y94F, P95A, Y96F
B11: hmL42人源化亲和力成熟变体 R2H11 (antibody, V domains shown)
VH: B2 VH
VL: B2 VL with S92Y, Y94W, P95S
B12: hmL42人源化亲和力成熟变体 R3G6 (antibody, V domains shown)
VH: B2 VH
VL: B2 VL with S92V, S93D, Y94F, Y96F, T97K
B13: hmL42人源化亲和力成熟变体 R2D12 (antibody, V domains shown)
VH: B2 VH
VL: B2 VL with S92M, Y94F, P95A, Y96F
B14: hmL42人源化亲和力成熟变体 R2B11 (antibody, V domains shown)
VH: B2 VH
VL: B2 VL with S92V, S93V, Y94F, P95S, T97S
B15: hmL42人源化亲和力成熟变体 R3G4 (antibody, V domains shown)
VH: B2 VH
VL: B2 VL with S92I, S93D, Y94F, Y96F, T97V
B16: hmL42人源化亲和力成熟变体 R3B6 (antibody, V domains shown)
VH: B2 VH
VL: B2 VL with S92L, Y94F, Y96F, T97M
B17: hmL42人源化亲和力成熟变体 R2A8 (antibody, V domains shown)
VH: B2 VH
VL: B2 VL with Q89M, Q90G, S92W, S93V, Y94F
B18: hmL42人源化亲和力成熟变体 R3B5 (antibody, V domains shown)
VH: B2 VH
VL: B2 VL with S92V, S93R, Y94F, P95S
B19: hmL42人源化亲和力成熟变体 R3C5 (antibody, V domains shown)
VH: B2 VH
VL: B2 VL with S92W, S93V, Y94W, P95D, T97V
B20: hmL42人源化亲和力成熟变体 R2C9 (antibody, V domains shown)
VH: B2 VH
VL: B2 VL with Q89M, Q90S, S92V, S93V, Y94F

Target: T1, 人LAG3抗原 (ACRO, Cat.LA3-H5222)
Test: indirect ELISA, coated human LAG3

binding result | Binder
binds | B1
binds | B2

Target: T1, 人LAG3抗原 (ACRO, Cat.LA3-H5222)
Test: indirect ELISA, coated human LAG3
Remark: another data set of the same source

EC50 | Binder
0.204 mg/L | B3
0.147 mg/L | B4
0.183 mg/L | B5
0.202 mg/L | B6
0.16 mg/L | B7
0.138 mg/L | B8
0.248 mg/L | B9
0.112 mg/L | B10
0.382 mg/L | B11
0.206 mg/L | B12
0.119 mg/L | B13
0.244 mg/L | B14
0.175 mg/L | B15
0.216 mg/L | B16
0.132 mg/L | B17
0.184 mg/L | B18
0.437 mg/L | B19
0.221 mg/L | B20

Target: T2, 过表达人LAG3抗原的Jurkat/LAG3细胞表面的人LAG3
Test: indirect flow cytometry on Jurkat/LAG3 cells

binding result | Binder
binds | B1
binds | B2
